Experimental data from patent publication US7148193B2, “Compounds that bind to growth hormone receptor” (Antyra, Inc., priority 1997, dated 2006).
Values belong to the compound of their own block, whether it stands above or below them.

How the values were obtained:
[1] = molecular target: T1, ‘hu’ GHBP (humanized rat GHBP) (Rattus norvegicus, UniProt P16310, L61R); assay: Phage ELISA binding and competition on 'hu' GHBP coated wells; conditions: ELISA signal
T1 construct: 1–48 of GHBP; The 3′ oligo used for this reaction encoded the mutation L43R (CTG→AGA); The second PCR reaction amplified the DNA encoding amino acids 38–260; 6xHis; made in house
T1 sequence (P16310 19-278 isoform P16310-2 L61R): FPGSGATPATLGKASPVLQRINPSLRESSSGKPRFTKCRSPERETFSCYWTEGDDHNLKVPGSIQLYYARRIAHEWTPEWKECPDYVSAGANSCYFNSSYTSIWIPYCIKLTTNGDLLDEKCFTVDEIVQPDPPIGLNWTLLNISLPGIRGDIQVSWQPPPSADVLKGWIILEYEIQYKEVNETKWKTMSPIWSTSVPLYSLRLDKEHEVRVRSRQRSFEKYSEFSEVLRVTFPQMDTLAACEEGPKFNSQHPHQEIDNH
Description: For analysis of individual clones, colonies were picked and phage prepared as described above. Microtiter wells were coated and blocked as described above. Wells were coated with either rGHBP or a control IgG MAb. Phage resuspended in MPBS were added to duplicate wells (100 μl/well) and incubated at room temperature for 1 hr. The phage solution was then removed, and the wells were washed three times with PBS at room temperature. Anti-M13 antibody conjugated to horseradish peroxidase (Pharmacia Biotech) was diluted 1:3000 in MPBS and added to each well (100 μl/well). Incubation was for another hour at room temperature, followed by PBS washes as described. Color was developed by addition of ABTS solution (100 μl/well; Boehringer). Color development was stopped by adjusting each well to 0.5% SDS. Plates were analyzed at 405 nm using a SpectraMax 340 plate reader (Molecular Devices) and SoftMax Pro software. Data points were averaged after subtraction of appropriate blanks. A clone was considered “positive” if the A405 of the well was >2-fold over background.
Humanized GHBP (‘hu’ GHBP) contained the single amino acid change of rat GHBP amino acids L43 to R43, and was capable of binding human GH, as shown in FIG. 9. Direct immobilization of ‘hu’ GHBP was done as described earlier for panning of the secondary H5 library against rat GHBP and used inputs of ‘hu’ GHBP, prepared as described earlier of 100 μl per well of […] protein. Panning was performed with or without H10 peptide (SEQ ID NO:9; 30 μM) for 4 rounds, and 96 clones were picked.
(§1) Clones were tested for the presence of E-tag and binding to ‘hu’ GHBP, rGHBP, or BSA-coated wells. Those having specific GHBP binding (i.e., at least 2 fold greater binding to the GHBP than BSA) and with an E-tag positive signal were subjected to DNA sequencing. Three different clones were isolated and tested a second time against GHBP plus and minus GH (1 μM) or BSA (1 μM) coated wells as described. In these tests, huGH was used as competitor with ‘hu’ GHBP coated wells and bovineGH was used as a competitor with rat GHBP coated wells. […] The following open reading frame insertion including the DYKD (SEQ ID NO:79) amino terminal tag and up to the C-terminal E-tag was obtained for these clones; and is shown in Table III: […]

rGHBP [2] = molecular target: T2, rGHBP (Rattus norvegicus, UniProt P16310); assay: Time-resolved fluorometric detection (TRFD) of specific bLigand binding to rGHBP and its competition
T2 construct: 1–48 of GHBP; The 3′ oligo used for this reaction encoded the mutation L43R (CTG→AGA); The second PCR reaction amplified the DNA encoding amino acids 38–260; 6xHis; made in house
T2 sequence (P16310 19-278 isoform P16310-2): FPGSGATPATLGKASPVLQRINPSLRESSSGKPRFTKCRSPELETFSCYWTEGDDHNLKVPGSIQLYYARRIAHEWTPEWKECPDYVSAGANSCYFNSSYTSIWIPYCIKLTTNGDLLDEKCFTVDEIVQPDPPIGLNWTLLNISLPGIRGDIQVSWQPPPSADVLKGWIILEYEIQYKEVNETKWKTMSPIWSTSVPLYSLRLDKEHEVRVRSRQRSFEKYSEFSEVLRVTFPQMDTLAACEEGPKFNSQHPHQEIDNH
Description: For this invention, saEu forms a ternary complex with bP and rGHBP (i.e., the rGHBP:bP:saEu complex). As described herein, the TRFD assay is performed using biotinylated GH (bGH) as bLigand. Biotinylated H5-mutant peptides bP#447 (SEQ ID NO:11) and bP#418 (SEQ ID NO:12) are also used as bLigand (see below). The TRFD assay described herein faithfully reports the competition of ligand binding to the active site of rGHR. To perform the TRFD assays, soluble rGHBP is attached to the surface of microtiter wells, then incubated with bP. Unbound bP is than washed away and (sa)Eu is added to complex with receptor bound bP. The rGHBP:bP bound (sa)Eu is then converted into its highly fluorescent state and detected by TRFD.
Wells were coated with rGHBP(100 ng/well) overnight as described. ED50 and IC50 were calculated from analysis of specific bLigand binding to rGHBP. Competitors were added 1 hr prior to addition of bLigand as described.
rGHBP (50–200 μg/ml in 50 mM NaHCO3) was coated onto low-fluorescence MaxiSorp (Nunc) plates (100 μl/well) overnight at 4° C. The plates were blocked with PBS containing 2% non-fat milk and 0.05% BSA for 2 hr at room temperature, followed by three PBS washes. For competitions, serial dilutions of unlabelled growth hormone (0.1 nM-100 nM) or MAb 2C3 (0.67–67 nM) were added to the plates (100 μl/well) and incubated at room temperature for 1–2 hr. Biotinylated peptide or biotinylated GH (10× concentrations) were incubated in blocking buffer for 30 min to decrease non-specific binding. Ten microliters of the 10× concentrated material was added to the plates and incubated at room temperature for 1 hr to overnight.
The plates were then washed five times with Tris-buffered saline (pH 7.5) containing 0.1% Tween-20 (TTBS). To each well, 100 μl of europium-labeled streptavidin in DELFIA assay buffer (100 mM Tris-HCl, pH 7.8; 150 mM NaCl; 0.5% BSA; 0.05% bovine Ig; 0.05% NaN3; 0.01% Tween-20) was added and incubated for 1.5 hr at room temperature. The plates were then washed five times with TTBS and tapped dry. Subsequently, 100 μl of DELFIA enhancement solution (100 mM acetone-potassium hydrogen phthalate, pH 3.2; 15 mM 2-naphtyltrifluoroacetate; […] tri(n-octyl)-phosphine oxide; 0.1% Triton X-100) was added to each well, and the plates were shaken for 10 min at room temperature. Fluorescence of each sample well was measured at 615 nm using a DELFIA 1234 fluorometer (EG&G Wallac). General procedure and references as described by Wallac are available in “Lanthanide labeling for time-resolved fluorometry”: Wallac publication 1244–1126-03.

rGHBP [3] = molecular target: T2, rGHBP; assay: Phage ELISA binding and competition on rGHBP coated wells; conditions: ELISA signal
Description: For analysis of individual clones, colonies were picked and phage prepared as described above. Microtiter wells were coated and blocked as described above. Wells were coated with either rGHBP or a control IgG MAb. Phage resuspended in MPBS were added to duplicate wells (100 μl/well) and incubated at room temperature for 1 hr. The phage solution was then removed, and the wells were washed three times with PBS at room temperature. Anti-M13 antibody conjugated to horseradish peroxidase (Pharmacia Biotech) was diluted 1:3000 in MPBS and added to each well (100 μl/well). Incubation was for another hour at room temperature, followed by PBS washes as described. Color was developed by addition of ABTS solution (100 μl/well; Boehringer). Color development was stopped by adjusting each well to 0.5% SDS. Plates were analyzed at 405 nm using a SpectraMax 340 plate reader (Molecular Devices) and SoftMax Pro software. Data points were averaged after subtraction of appropriate blanks. A clone was considered “positive” if the A405 of the well was >2-fold over background. […]
These clones were next analyzed for binding to the receptor's active sites (FIG. 2B). Competitions of phage binding were done both with the cognate ligand (i.e., GH) and with a specific target-neutralizing MAb 2C3 (Wang, B. S., et al. Mol. Cellular Endocrinology, vol. 116, p. 223–226, 1996).
as §1

‘hu’ GHBP = molecular target: T3, ‘hu’ GHBP (Rattus norvegicus, UniProt P16310, L61R); assay: Species specificity of binding by ELISA and BIAcore, 'hu' GHBP; conditions: in words
T3 construct: 1–48 of GHBP; The 3′ oligo used for this reaction encoded the mutation L43R (CTG→AGA); The second PCR reaction amplified the DNA encoding amino acids 38–260; 6xHis; made in house
T3 sequence (P16310 19-278 isoform P16310-2 L61R): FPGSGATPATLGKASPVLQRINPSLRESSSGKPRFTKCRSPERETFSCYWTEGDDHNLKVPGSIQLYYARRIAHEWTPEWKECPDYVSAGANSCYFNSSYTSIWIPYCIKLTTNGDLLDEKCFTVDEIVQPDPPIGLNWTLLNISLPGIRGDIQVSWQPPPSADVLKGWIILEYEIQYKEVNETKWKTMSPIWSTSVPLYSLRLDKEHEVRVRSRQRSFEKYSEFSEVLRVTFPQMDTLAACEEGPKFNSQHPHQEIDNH
Description: Wells were coated with either recombinant rGHBP or ‘hu’ GHBP (100 ng/well). Additions of H5 (SEQ ID NO:8) and H10 (SEQ ID NOS:9, 80, and 81) phage (10^10/well) and detection were made as described. […] Streptavidin chips were coated with H5 (SEQ ID NO:8) to 1100 RU as described and rGHBP or ‘hu’ GHBP (500 μg/ml) injected as 30 μl samples.
Growth hormone receptors from different species bind human GH as well as their own GH, however human GHR only binds human or monkey GH. […] The sequence of rGHBP was altered by PCR to create a “humanized” version (‘hu’ GHBP; FIG. 9A). Partially purified ‘hu’GHBP (FIG. 9B) was tested for binding using ELISA and BIAcore analysis. […] This was confirmed by BIAcore analysis (FIG. 10B).
The biotinylated control peptide (SEQ ID NO:10) was immobilized onto one flow cell of a SA-5 (streptavidin coated) sensor chip to a final density of 700 RU. On a second flow cell, either hGH (1100 RU final density), H5WT peptide (SEQ ID NO:8; 1100 RU final density), or bGH (730 RU final density) was immobilized. GHBP (either rat or humanized) was injected at a concentration of 500 μg/ml with a flow rate of 5 μl/min. Background binding to the control surface was subtracted prior to further analysis.

Compound: 445: H5-mutant peptide SEQ ID NO:13 (DYKDLCQRLGVGWPGWLAGWCA; #445 peptide) [compound 445]
ELISA Competition, ‘hu’GHBP, +BSA ([1]; BSA 1 μM): 0.11 | ELISA Competition, ‘hu’GHBP, +hGH ([1]; huGH 1 μM as competitor): 0.12 | ELISA Competition, ‘hu’GHBP, none ([1]; no competitor): 0.14 | saturation of receptors (rGHBP [2]; TRFD): could not be saturated | ELISA Competition, rGHBP, +BSA (rGHBP [3]; BSA 1 μM): 0.44 | ELISA Competition, rGHBP, +bGH (rGHBP [3]; bovine GH 1 μM as competitor): 0.16 | ELISA Competition, rGHBP, none (rGHBP [3]; no competitor): 0.45

IC50 vs. bGH (rGHBP [2]; TRFD, DMSO effect on bGH binding): >>3% | IC50 vs. bP#418 (SEQ ID NO: 12) (rGHBP [2]; TRFD, DMSO effect on bP#418 binding): >>3% | IC50 vs. bP#447 (SEQ ID NO: 11) (rGHBP [2]; TRFD, DMSO effect on bP#447 binding): >>3% | DMSO IC50 (rGHBP [2]; specific binding of bGH (3 nM), bP#447 (0.3 μM) and bP#418 (0.3 μM), 0 to 20% DMSO): > 15 % (v/v)
Compound: C[S+](C)[O-] [DMSO]

binding to ‘hu’ GHBP (‘hu’ GHBP): bound to human GH
Compound: human GH: human growth hormone
